Drawing on patent US20150368338A1 (Janssen / Centocor, published 2015), this text covers Kd for 13 molecules.

Assay in all cases: ProteOn SPR, cell supernatant;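 also: each binding measurement used just a single antigen concentration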
Assay [1] has as its target T1, IFN-αWA (human, UniProt P05015 24-189).
T1 construct: Recombinant, HEK293; also called IFN-α16
Source text: (§1) To increase the assay throughput, only one concentration of the individual antigen was used.

The target of assay [2] is T2, human IFN-ω (human, UniProt P05000 24-195).
T2 construct: Recombinant, HEK293; also called interferon omega
Source text: as §1

Assay [3] concerns the target T3, IFN-αJ1 (human, UniProt P01567 24-189).
T3 construct: Recombinant, HEK293; also called IFN-α7
Source text: as §1

Assay [4] has as its target T4, IFN-αF (human, UniProt P01568 24-189).
T4 construct: Recombinant, HEK293; also called IFN-α21
T4 chain: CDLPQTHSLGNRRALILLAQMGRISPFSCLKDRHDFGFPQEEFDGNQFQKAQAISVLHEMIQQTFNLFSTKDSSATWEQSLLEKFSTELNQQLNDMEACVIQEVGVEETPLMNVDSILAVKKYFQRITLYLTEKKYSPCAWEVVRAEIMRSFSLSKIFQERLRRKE
Source text: as §1

In assay [5] the target is T5, IFN-α4a (human, UniProt P05014 24-189).
T5 construct: Recombinant, HEK293; also called IFN-αM1
Source text: as §1

For assay [6], the target named is T6, IFN-αG (human, UniProt P01569 24-189).
T6 construct: Recombinant, HEK293; also called IFN-α5
Source text: as §1

Assay [7] has as its target T7, IFN-αC (human, UniProt P01566 24-189).
T7 construct: Recombinant, HEK293; also called IFN-α10
Source text: as §1

B1: IFWM3387 (antibody, IgG1, V domains shown)
VH: EVQLVQSGAEVKKPGESLKISCKGSGYSFTSYWIGWVRQMPGKGLEWMGIIDPSDSDTRYSPSFQGQVTISADKSISTAYLQWSSLKASDTAMYYCARHPGLAWAPDFDYWGQGTLVTVSS
VL: DIQMTQSPSSLSASVGDRVTITCRASQSIGGFLNWYQQKPGKAPKLLIYFASSLQSGVPSRFSGSGSGTDFTLTISSLQPEDFATYYCQQSYSLPITFGQGTKVEIK
notes: mAb; IgG1/kappa said of the parent and of selected mAbs; also called IFWB3122
Usually Kd stands for the concentration at which binding is half-saturated. A low value points to a tighter complex. B1: the equilibrium dissociation constant (Kd) in assay [1] came out at 0.069 nM; in assay [2], 0.039 nM; in assay [3], 0.161 nM; in assay [4], 0.058 nM; in assay [5] it was 0.169 nM; in assay [6], 0.034 nM. Moreover, the Kd in assay [7] was found to be 0.09 nM.

B2: IFWM3389 (antibody, IgG1, V domains shown)
VH: EVQLVQSGAEVKKPGESLKISCKGSGYSFTSYWIGWVRQMPGKGLEWMGIIDPSDSDTRYSPSFQGQVTISADKSISTAYLQWSSLKASDTAMYYCARHPGLAWAPDFDYWGQGTLVTVSS
VL: DIQMTQSPSSLSASVGDRVTITCRASQSIDDFLNWYQQKPGKAPKLLIYFASSLQSGVPSRFSGSGSGTDFTLTISSLQPEDFATYYCQQSHTLPLTFGQGTKVEIK
notes: mAb; IgG1/kappa said of the parent and of selected mAbs; also called IFWB3124
Consider B2, for which the Kd in assay [1] was 0.03 nM; in assay [2], 0.017 nM; in assay [3] it was 0.032 nM; in assay [4] it was 0.009 nM; in assay [5], 0.098 nM; in assay [6] it was 0.033 nM. This molecule also came in with a Kd in assay [7] of 0.024 nM.

B3: IFWM3390 (antibody, IgG1, V domains shown)
VH: EVQLVQSGAEVKKPGESLKISCKGSGYSFTSYWIGWVRQMPGKGLEWMGIIDPSDSDTRYSPSFQGQVTISADKSISTAYLQWSSLKASDTAMYYCARHPGLAWAPDFDYWGQGTLVTVSS
VL: DIQMTQSPSSLSASVGDRVTITCRASQSIDGALNWYQQKPGKAPKLLIYFASSLQSGVPSRFSGSGSGTDFTLTISSLQPEDFATYYCQQSFDFPLTFGQGTKVEIK
notes: mAb; IgG1/kappa said of the parent and of selected mAbs; also called IFWB3125
For the molecule B3, the Kd in assay [1] turned out to be 0.029 nM; in assay [2], 0.01 nM; in assay [3] it was 0.03 nM; in assay [4], 0.011 nM; in assay [5] it was 0.075 nM; in assay [6] it was 0.01 nM. In assay [7], this molecule came in with a Kd of 0.011 nM.

B4: IFWM3395 (antibody, IgG1, V domains shown)
VH: EVQLVQSGAEVKKPGESLKISCKGSGYSFTSYWIGWVRQMPGKGLEWMGIIDPSDSDTRYSPSFQGQVTISADKSISTAYLQWSSLKASDTAMYYCARHPGLAWAPDFDYWGQGTLVTVSS
VL: DIQMTQSPSSLSASVGDRVTITCRASQSISKFLNWYQQKPGKAPKLLIYFASSLQSGVPSRFSGSGSGTDFTLTISSLQPEDFATYYCQQSYDFPITFGQGTKVEIK
notes: mAb; IgG1/kappa said of the parent and of selected mAbs; also called IFWB3130
Take B4: the Kd in assay [1] came out at 0.063 nM; in assay [2] it was 0.019 nM; in assay [3], 0.181 nM; in assay [4] it was 0.102 nM; in assay [5], 0.279 nM; in assay [6], 0.063 nM. Also, in assay [7], the affinity, expressed as Kd, was 0.116 nM.

B5: IFWM3388 (antibody, IgG1, V domains shown)
VH: EVQLVQSGAEVKKPGESLKISCKGSGYSFTSYWIGWVRQMPGKGLEWMGIIDPSDSDTRYSPSFQGQVTISADKSISTAYLQWSSLKASDTAMYYCARHPGLAWAPDFDYWGQGTLVTVSS
VL: DIQMTQSPSSLSASVGDRVTITCRASQSIGKSLNWYQQKPGKAPKLLIYFASSLQSGVPSRFSGSGSGTDFTLTISSLQPEDFATYYCQQSYDFPLTFGQGTKVEIK
notes: mAb; IgG1/kappa said of the parent and of selected mAbs; also called IFWB3123
On to B5, for which the dissociation constant Kd was determined as 0.044 nM in assay [1]; 0.033 nM in assay [2]; 0.055 nM in assay [3]; 0.019 nM in assay [4]; 0.084 nM in assay [5]; 0.027 nM in assay [6]. Binding in assay [7] was put at a Kd of 0.03 nM.

B6: IFWM3396 (antibody, IgG1, V domains shown)
VH: EVQLVQSGAEVKKPGESLKISCKGSGYSFTSYWIGWVRQMPGKGLEWMGIIDPSDSDTRYSPSFQGQVTISADKSISTAYLQWSSLKASDTAMYYCARHPGLAWAPDFDYWGQGTLVTVSS
VL: DIQMTQSPSSLSASVGDRVTITCRASQSISEYLNWYQQKPGKAPKLLIYFASSLQSGVPSRFSGSGSGTDFTLTISSLQPEDFATYYCQQSHSLPITFGQGTKVEIK
notes: mAb; IgG1/kappa said of the parent and of selected mAbs; also called IFWB3131
As to B6, the Kd in assay [1] is 0.068 nM; in assay [2], 0.011 nM; in assay [3], 0.037 nM; in assay [4], 0.007 nM; in assay [5], 0.079 nM; in assay [6], 0.061 nM. The Kd in assay [7] came to 0.005 nM.

B7: IFWM3394 (antibody, IgG1, V domains shown)
VH: EVQLVQSGAEVKKPGESLKISCKGSGYSFTSYWIGWVRQMPGKGLEWMGIIDPSDSDTRYSPSFQGQVTISADKSISTAYLQWSSLKASDTAMYYCARHPGLAWAPDFDYWGQGTLVTVSS
VL: DIQMTQSPSSLSASVGDRVTITCRASQSINEFLNWYQQKPGKAPKLLIYFASSLQSGVPSRFSGSGSGTDFTLTISSLQPEDFATYYCQQSYSTPLTFGQGTKVEIK
notes: mAb; IgG1/kappa said of the parent and of selected mAbs; also called IFWB3129
B7: the Kd in assay [1] stood at 0.049 nM; in assay [2], 0.045 nM; in assay [3], 0.077 nM; in assay [4] it was 0.063 nM; in assay [5], 0.105 nM; in assay [6], 0.091 nM. Binding in assay [7] was characterised by a dissociation constant (Kd) of 0.063 nM.

B8: IFWM3398 (antibody, IgG1, V domains shown)
VH: EVQLVQSGAEVKKPGESLKISCKGSGYSFTSYWIGWVRQMPGKGLEWMGIIDPSDSDTRYSPSFQGQVTISADKSISTAYLQWSSLKASDTAMYYCARHPGLAWAPDFDYWGQGTLVTVSS
VL: DIQMTQSPSSLSASVGDRVTITCRASQSINGVLNWYQQKPGKAPKLLIYFASSLQSGVPSRFSGSGSGTDFTLTISSLQPEDFATYYCQQSHDFPLTFGQGTKVEIK
notes: mAb; IgG1/kappa said of the parent and of selected mAbs; also called IFWB3133
Turning to B8, the Kd came to 0.03 nM in assay [1]; 0.026 nM in assay [2]; 0.044 nM in assay [3]; 0.017 nM in assay [4]; 0.061 nM in assay [5]; 0.022 nM in assay [6]. Moreover, the dissociation constant Kd in assay [7] came to 0.017 nM.

B9: IFWM3391 (antibody, IgG1, V domains shown)
VH: EVQLVQSGAEVKKPGESLKISCKGSGYSFTSYWIGWVRQMPGKGLEWMGIIDPSDSDTRYSPSFQGQVTISADKSISTAYLQWSSLKASDTAMYYCARHPGLAWAPDFDYWGQGTLVTVSS
VL: DIQMTQSPSSLSASVGDRVTITCRASQSINNFLNWYQQKPGKAPKLLIYFASSLQSGVPSRFSGSGSGTDFTLTISSLQPEDFATYYCQQSFNLPITFGQGTKVEIK
notes: mAb; IgG1/kappa said of the parent and of selected mAbs; also called IFWB3126
Consider B9, for which the Kd in assay [1] was determined as 0.042 nM; in assay [2], 0.023 nM; in assay [3] it was 0.066 nM; in assay [4] it was 0.025 nM; in assay [5], 0.117 nM; in assay [6], 0.044 nM. This molecule also displayed a Kd in assay [7] of 0.016 nM.

B10: IFWM3392 (antibody, IgG1, V domains shown)
VH: EVQLVQSGAEVKKPGESLKISCKGSGYSFTSYWIGWVRQMPGKGLEWMGIIDPSDSDTRYSPSFQGQVTISADKSISTAYLQWSSLKASDTAMYYCARHPGLAWAPDFDYWGQGTLVTVSS
VL: DIQMTQSPSSLSASVGDRVTITCRASQSIDRALNWYQQKPGKAPKLLIYFASSLQSGVPSRFSGSGSGTDFTLTISSLQPEDFATYYCQQSFDFPLTFGQGTKVEIK
notes: mAb; IgG1/kappa said of the parent and of selected mAbs; also called IFWB3127
In the case of B10, the Kd in assay [1] amounted to 0.025 nM; in assay [2], 0.023 nM; in assay [3] it was 0.021 nM; in assay [4], 0.014 nM; in assay [5], 0.058 nM; in assay [6], 0.019 nM. The same molecule registered a Kd in assay [7] of 0.016 nM.

B11: IFWM3397 (antibody, IgG1, V domains shown)
VH: EVQLVQSGAEVKKPGESLKISCKGSGYSFTSYWIGWVRQMPGKGLEWMGIIDPSDSDTRYSPSFQGQVTISADKSISTAYLQWSSLKASDTAMYYCARHPGLAWAPDFDYWGQGTLVTVSS
VL: DIQMTQSPSSLSASVGDRVTITCRASQSITGFLNWYQQKPGKAPKLLIYAASSLQSGVPSRFSGSGSGTDFTLTISSLQPEDFATYYCQQSHDFPLTFGQGTKVEIK
notes: mAb; IgG1/kappa said of the parent and of selected mAbs; also called IFWB3132
As to B11, the Kd was 0.062 nM in assay [1]; 0.025 nM in assay [2]; 0.078 nM in assay [3]; 0.028 nM in assay [4]; 0.119 nM in assay [5]; 0.043 nM in assay [6]. Also, in assay [7], binding was put at a Kd of 0.027 nM.

B12: IFWM3403 (antibody, IgG1, V domains shown)
VH: EVQLVQSGAEVKKPGESLKISCKGSGYSFTSYWIGWVRQMPGKGLEWMGIIDPSDSDTRYSPSFQGQVTISADKSISTAYLQWSSLKASDTAMYYCARHPGLAWAPDFDYWGQGTLVTVSS
VL: DIQMTQSPSSLSASVGDRVTITCRASQSIRNSLNWYQQKPGKAPKLLIKWASSLQSGVPSRFSGSGSGTDFTLTISSLQPEDFATYYCQQLYDWPLTFGQGTKVEIK
notes: mAb; IgG1/kappa said of the parent and of selected mAbs; also called IFWB3138
In the case of B12, the Kd in assay [1] was found to be 0.023 nM; in assay [2] it was 0.007 nM; in assay [3], 0.059 nM; in assay [4], 0.027 nM; in assay [5] it was 0.062 nM; in assay [6], 0.027 nM. For the same molecule, in assay [7], the Kd was determined as 0.025 nM.

B13: IFWM3393 (antibody, IgG1, V domains shown)
VH: EVQLVQSGAEVKKPGESLKISCKGSGYSFTSYWIGWVRQMPGKGLEWMGIIDPSDSDTRYSPSFQGQVTISADKSISTAYLQWSSLKASDTAMYYCARHPGLAWAPDFDYWGQGTLVTVSS
VL: DIQMTQSPSSLSASVGDRVTITCRASQSITSSLNWYQQKPGKAPKLLIYFASSLQSGVPSRFSGSGSGTDFTLTISSLQPEDFATYYCQQSFDLPLTFGQGTKVEIK
notes: mAb; IgG1/kappa said of the parent and of selected mAbs; also called IFWB3128
Turning to B13, the Kd in assay [1] was determined as 0.078 nM; in assay [2], 0.057 nM; in assay [3], 0.096 nM; in assay [4], 0.041 nM; in assay [5] it was 0.166 nM; in assay [6] it was 0.064 nM. In assay [7], this molecule displayed a dissociation constant (Kd) of 0.049 nM.
